In patent US20220259593A1, “CONTROL OF MAMMALIAN GENE DOSAGE USING CRISPR” (The Regents of the University of California, priority 2019, published 2022):

Test system: K562 CRISPRi cells
Assay: Constant region variant library pooled growth screen, K562
Type: cell-based, human
Conditions: sgRNA constant region variants; activity relative to the original, un-modified constant region cr995
Outline: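 Relative activity expresses each targeting sequence:constant region pair's phenotype over that of the unmodified constant region. Pooled growth screen ran in K562 CRISPRi cells in duplicate spinner-flask replicates, with puromycin selection and 4–8 days' growth at >2000× coverage; library paired variants with 36 targeting sequences.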

| Molecule | Mean relative activity |
| --- | --- |
| cr381 (nucleic acid, listed as DNA, chemistry not fully specified) guide: GTTTAAGAGCTAAGCTGGAAACAGCATAGCAAGTTTAAATTAGGCTCGTCCGTTATCAACTTGACAAAGTGGCACCGAGTCGGTGCT | 0.003196 |
| cr735 (nucleic acid, listed as DNA, chemistry not fully specified) guide: GTTTAAGAGCTAAGCTGGAAACAGCATAGCAACTTTAAATAAGGCTAGTCCGTTATCAACTTGAAAAAGTCGCACCGAGTCGGTGCT | 0.002596 |
| cr093 (nucleic acid, listed as DNA, chemistry not fully specified) guide: GTTTCGGAGCTAAGCTGGAAACAGCATAGCAAGTTTAAATAAGGCTAGTCCGTTATCAACTTGAAAAAGTGGCACCGAGTCGGTGCT | 0.001456 |
| cr099 (nucleic acid, listed as DNA, chemistry not fully specified) guide: GTTTAAGAGCTAAGCTGGAAACAGCATAGCAATTTTAAATAAGGCTAGGCCGTTATCAACTTGAAAAAGTGGCACCGAGTCGGTGCT | 0.0005052 |
| cr106 (nucleic acid, listed as DNA, chemistry not fully specified) guide: GTTTAAGAGCTAAGCTGGAAACAGCATAGCAAGGTTAAATAAGTCTAGTACGTTATCAACTTGAAAAAGTGGCACCGAGTCGGTGCT | 0.001355 |
| cr482 (nucleic acid, listed as DNA, chemistry not fully specified) guide: GTTTAAGAGCTAAGCTGGAAACAGCATAGCAAGTTTAAATAAGGCTTGTCCCTTATCAACTTGAAAAAGTGGCACCGAGTCGGTGCT | 0.003006 |
| cr975 (nucleic acid, listed as DNA, chemistry not fully specified) guide: GTTTAAGAGCTAAGCTGGAAACAGCATAGCAACTTTAAATATGGCTAGTCCGTTATCAACTTGAAAAAGTGGCACCGAGTCGGTGCT | 0.002152 |
| cr657 (nucleic acid, listed as DNA, chemistry not fully specified) guide: GTTTAAGAGCTAAGCTGGAAACAGCATAGCAAGTTTAAATAAGGCTAGTGCGTTATCAACTTGAAAAAGTGGCACCGAGTCGGTGCT | 0.002604 |
| cr035 (nucleic acid, listed as DNA, chemistry not fully specified) guide: GTTGATGAGCTAAGCTGGAAACAGCATAGCAAGTTTAAATAAGGCTAGTCCGTTATCAACTTGAAAAAGTGGCACCGAGTCGGTGCT | 0.0006927 |
| cr244 (nucleic acid, listed as DNA, chemistry not fully specified) guide: GTTTAAGAGCTAAGCTGGAAACAGCATAGCAAGGTTAAATAAGGGTACTCCGTTATCAACTTGAAAAAGTGGCACCGAGTCGGTGCT | 0.00149 |
| cr810 (nucleic acid, listed as DNA, chemistry not fully specified) guide: GTTTAAGAGCTAAGCTGGAAACAGCATAGCAAGGTTAAATAAGGCTAGTCCGTTATCAACTTGAAAAAGTGGCACCCAGTGGGTGCT | 0.002026 |
| cr129 (nucleic acid, listed as DNA, chemistry not fully specified) guide: GTTTAAGAGCTAAGCTGGAAACAGCATAGCAAGTTTAAATAAGGCTAGTCCGTTATCAACGTGAGAACGTGGCACCGAGTCGGTGCT | 1.029 |
| cr068 (nucleic acid, listed as DNA, chemistry not fully specified) guide: GTTAGAGAGCTAAGCTGGAAACAGCATAGCAAGTTTAAATAAGGCTAGTCCGTTATCAACTTGAAAAAGTGGCACCGAGTCGGTGCT | 0.002959 |
| cr930 (nucleic acid, listed as DNA, chemistry not fully specified) guide: GTTTAAGAGCTAAGCTGGAAACAGCATAGCATGTTTAAATAAGGCTAGGCCGTTATTAACTTGAAAAAGTGGCACCGAGTCGGTGCT | 0.001721 |
| cr083 (nucleic acid, listed as DNA, chemistry not fully specified) guide: GTGTGAGAGCTAAGCTGGAAACAGCATAGCAAGTTTAAATAAGGCTAGTCCGTTATCAACTTGAAAAAGTGGCACCGAGTCGGTGCT | 0.001403 |
| cr939 (nucleic acid, listed as DNA, chemistry not fully specified) guide: GTTTAAGAGCTAAGCTGGAAACAGCATAGCAACTTTAAATAAGGCAAGTCCCTTATCAACTTGAAAAAGTGGCACCGAGTCGGTGCT | 4.94E−05 |
| cr355 (nucleic acid, listed as DNA, chemistry not fully specified) guide: GTTTAAGAGCTAAGCTGGAAACAGCATAGCAAGGTTAAATAAGGCTAGTCCGTTATCAACTAGAAATAGTGGCACCGAGTCGGTGCT | 0.001771 |
| cr271 (nucleic acid, listed as DNA, chemistry not fully specified) guide: GTTTAAGAGCTAAGCTGGAAACAGCATAGCAAGTTTAAATAAGGCTAGTCCGTTATCAACTTGAAAAAGTGGTCCCGAGTCGGGACT | 1.03 |
| cr786 (nucleic acid, listed as DNA, chemistry not fully specified) guide: GTTTAAGAGCTAAGCTGGAAACAGCATAGCAAGTTTAAATTAGGCTAGTCCGTTGTGAACTTGAAAAAGTGGCACCGAGTCGGTGCT | 0.001749 |
| cr903 (nucleic acid, listed as DNA, chemistry not fully specified) guide: GTTTAAGAGCTAAGCTGGAAACAGCATAGCAAGTTTAAATAAGGCTAGTCCCTTATCAACTTGAAAAAGTGGCACCGAATCGGTGCT | 0.00222 |
| cr787 (nucleic acid, listed as DNA, chemistry not fully specified) guide: GTTTAAGAGCTAAGCTGGAAACAGCATAGCAACTTTAAATAACGCTAGTCGGTTATCAACTTGAAAAAGTGGCACCGAGTCGGTGCT | 0.0008483 |
| cr149 (nucleic acid, listed as DNA, chemistry not fully specified) guide: GTTTAAGAGCTAAGCTGGAAACAGCATAGCAAGTTTAAATAACGCTAGTCGGTTATCAACTTGAAAAAGTGTCACCGAGTCGGTGAT | 0.00167 |
| cr572 (nucleic acid, listed as DNA, chemistry not fully specified) guide: GTTTAAGAGCTAAGCTGGAAACAGCATAGCAAGTTTAAATAACCGAACTCGGTTATCAACTTGAAAAAGTGGCACCGAGTCGGTGCT | 0.002782 |
| cr497 (nucleic acid, listed as DNA, chemistry not fully specified) guide: GTTTAAGAGCTAAGCTGGAAACAGCATAGCAAGTTTAAATAAGGCTAGTCCGTTATCAACTTGAGAAAGTGGAACCGAGTCGGTTCT | 1.028 |
| cr874 (nucleic acid, listed as DNA, chemistry not fully specified) guide: GTTTAAGAGCTAAGCTGGAAACAGCATAGCAAGGTTAAATAATGCTAGTCAGTTATCAACTTGAAAAAGTGGCACCGAGTCGGTGCT | 0.002144 |
| cr225 (nucleic acid, listed as DNA, chemistry not fully specified) guide: GTTTAAGAGCTAAGCTGGAAACAGCATAGCAAGTTTAAATAATGCTATTCCGTTATCAACTTGAAAAAGTGGCACCGAGTCGGTGCT | 0.002658 |
| cr608 (nucleic acid, listed as DNA, chemistry not fully specified) guide: GTTTAAGAGCTAAGCTGGAAACAGCATAGCAACTTTAAATAAGGGTACTCCGTTATCAACTTGAAAAAGTGGCACCGAGTCGGTGCT | 0.002568 |
| cr674 (nucleic acid, listed as DNA, chemistry not fully specified) guide: GTTTAAGAGCTAAGCTGGAAACAGCATAGCAAGTTTAAATAACGCTAGTCGGTTATCATCTTGAAAAAGAGGCACCGAGTCGGTGCT | 0.00279 |
| cr143 (nucleic acid, listed as DNA, chemistry not fully specified) guide: GTTTAAGAGCTAAGCTGGAAACAGCATAGCAACTTTAAATAAGACTAGTTCGTTATCAACTTGAAAAAGTGGCACCGAGTCGGTGCT | 0.001524 |
| cr350 (nucleic acid, listed as DNA, chemistry not fully specified) guide: GTTTAAGAGCTAAGCTGGAAACAGCATAGCAAGCTTAAATAATGCTAGTCAGTTATCAACTTGAAAAAGTGGCACCGAGTCGGTGCT | 0.001423 |
